Data reported in PMC11329725 (Nature Communications, 2024).

Columns and labels:
[1] = target: T1, His6-HDOB1 (human BRCA2 helical domain and OB fold 1, residues 2479-2807) (human, UniProt P51587 2479-2807); assay: co-purification
T1 sequence: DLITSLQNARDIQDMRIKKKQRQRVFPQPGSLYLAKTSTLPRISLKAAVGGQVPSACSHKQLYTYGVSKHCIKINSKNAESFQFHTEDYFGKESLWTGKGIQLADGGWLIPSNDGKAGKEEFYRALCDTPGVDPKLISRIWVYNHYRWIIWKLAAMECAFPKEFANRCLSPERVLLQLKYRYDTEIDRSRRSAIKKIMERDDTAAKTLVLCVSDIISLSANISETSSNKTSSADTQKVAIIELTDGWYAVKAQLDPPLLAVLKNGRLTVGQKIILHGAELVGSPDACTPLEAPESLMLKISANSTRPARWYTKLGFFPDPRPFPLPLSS

[2] = target: T2, OB23 (OB2-OB3 with tower) (human, UniProt P51587 2808-3192); assay: EMSA
T2 sequence: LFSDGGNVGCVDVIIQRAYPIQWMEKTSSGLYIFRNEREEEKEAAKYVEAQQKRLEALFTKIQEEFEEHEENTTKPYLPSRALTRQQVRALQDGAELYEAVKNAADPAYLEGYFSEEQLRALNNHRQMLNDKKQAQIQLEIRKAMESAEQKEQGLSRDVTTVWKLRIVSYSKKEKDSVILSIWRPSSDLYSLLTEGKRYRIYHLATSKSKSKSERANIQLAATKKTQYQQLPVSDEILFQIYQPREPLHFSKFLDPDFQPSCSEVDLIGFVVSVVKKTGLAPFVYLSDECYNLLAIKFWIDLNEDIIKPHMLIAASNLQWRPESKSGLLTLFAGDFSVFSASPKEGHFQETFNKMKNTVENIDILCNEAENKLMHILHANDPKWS

BRCA2 DBD = target: T3, BRCA2 DBD (mouse, UniProt P97929 2378-3115); assay: EMSA
T3 sequence: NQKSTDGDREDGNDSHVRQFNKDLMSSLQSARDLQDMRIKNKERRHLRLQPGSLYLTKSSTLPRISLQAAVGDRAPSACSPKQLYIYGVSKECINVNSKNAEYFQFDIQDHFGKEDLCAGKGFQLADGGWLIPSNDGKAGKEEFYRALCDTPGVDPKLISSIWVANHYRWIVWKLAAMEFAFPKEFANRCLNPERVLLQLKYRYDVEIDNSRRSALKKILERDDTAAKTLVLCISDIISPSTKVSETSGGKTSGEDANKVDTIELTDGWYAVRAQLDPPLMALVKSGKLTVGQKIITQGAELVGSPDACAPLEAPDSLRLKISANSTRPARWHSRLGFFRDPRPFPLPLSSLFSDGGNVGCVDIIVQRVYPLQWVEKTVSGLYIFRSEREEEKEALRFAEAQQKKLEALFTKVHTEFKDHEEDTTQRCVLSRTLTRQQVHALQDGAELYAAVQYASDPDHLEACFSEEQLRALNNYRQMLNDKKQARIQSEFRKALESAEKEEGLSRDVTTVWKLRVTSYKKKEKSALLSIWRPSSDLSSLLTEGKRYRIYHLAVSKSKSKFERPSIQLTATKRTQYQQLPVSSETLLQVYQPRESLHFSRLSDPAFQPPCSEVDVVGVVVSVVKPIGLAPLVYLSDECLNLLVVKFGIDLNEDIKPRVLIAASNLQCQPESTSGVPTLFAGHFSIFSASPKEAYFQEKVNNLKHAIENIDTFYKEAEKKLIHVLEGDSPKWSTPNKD

[3] = target: BRCA2 DBD;DSS1(1-36) (partner of DBD) (mouse;human?, UniProt P97929;P60896 2378-3115;1-36, |del37-70); assay: EMSA
[4] = target: BRCA2 DBD;DSS1(1-54) (partner of DBD) (mouse;human?, UniProt P97929;P60896 2378-3115;1-54, |del55-70); assay: EMSA
[5] = target: BRCA2 DBD;DSS1 R57Q (partner of DBD) (mouse;human?, UniProt P97929;P60896 2378-3115;1-70, |R57Q); assay: EMSA

B1: GST-DSS1 1-45, co-expressed with His6-HDOB1 in E. coli (domain or fragment)
chain: MSEKKQPVDLGLLEEDDEFEEFPAEDWAGLDEDEDAHVWEDNWDD
binding result [1]: binds

B2: GST-DSS1 1-54, co-expressed with His6-HDOB1 in E. coli (domain or fragment)
chain: MSEKKQPVDLGLLEEDDEFEEFPAEDWAGLDEDEDAHVWEDNWDDDNVEDDFSN
binding result [1]: binds

B3: Cy5 80-mer ssDNA (oligo 1) (ssDNA)
DNA: TTATATCCTTTACTTTGAATTCTATGTTTAACCTTTTACTTATTTTGTATTAGCCGGACCTTATTTCAATTATGTTCAT
Kd [2]: 270 nM | binding result (BRCA2 DBD): binds | binding result [3]: binds | binding result [4]: binds | binding result [5]: binds

B4: Cy5 80-bp dsDNA (oligo 1/oligo 2) (dsDNA)
DNA 1: TTATATCCTTTACTTTGAATTCTATGTTTAACCTTTTACTTATTTTGTATTAGCCGGACCTTATTTCAATTATGTTCAT
DNA 2: ATGAACATAATTGAAATAAGGATCCGGCTAATACAAAATAAGTAAAAGGTTAAACATAGAATTCAAAGTAAAGGATATAA
binding result (BRCA2 DBD): binds | binding result [3]: binds | binding result [4]: binds | binding result [5]: binds
